In this experiment the target is APOBEC-1 (apolipoprotein B mRNA editing catalytic subunit 1) (Homo sapiens (Human), UniProt P41238 1-236). Briefly: yeast two-hybrid (MatchMaker; his- selection and lacZ filter lift), negative control.
APOBEC-1 (apolipoprotein B mRNA editing catalytic subunit 1), sequence (P41238 whole entry M80I): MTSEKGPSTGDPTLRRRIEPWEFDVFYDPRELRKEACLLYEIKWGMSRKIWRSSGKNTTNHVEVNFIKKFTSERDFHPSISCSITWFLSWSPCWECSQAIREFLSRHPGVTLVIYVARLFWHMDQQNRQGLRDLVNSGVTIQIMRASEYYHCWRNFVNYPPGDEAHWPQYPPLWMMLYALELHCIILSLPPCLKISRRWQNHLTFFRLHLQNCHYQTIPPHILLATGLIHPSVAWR

Source text: The MatchMaker system includes specific protocols for setting up the yeast two hybrid selection, for verifying true His+, LacZ+ transformants and ruling out false positives. Both the selection scheme and verification of true positives follow the manufacturer's recommendations using cDNAs encoding APOBEC-and ACF (FIG. 9).

B1: lamin C (other, UniProt P02545-2 66-230, looked up)
chain: SEEVVSREVSGIKAAYEAELGDARKTLDSVAKERARLQLELSKVREEFKELKARNTKKEGDLIAAQARLKDLEALLNSKEAALSTALSEKRTLEGELHDLRGQVAKLEAALGEAKKQLQDEMLRRVDAENRLQTMKEELDFQKNIYSEELRETKRRHETRLVEID
notes: Negative-control two-hybrid fusion
Take B1: the binding result was “no binding”.

These data come from patent US20050287648A1 (UNIVERSITY OF ROCHESTER, published 2005).
